Data from paper PMC5663709.

What was measured:
[1] = biological target: cell surface-expressed H3N2 WN/05 HA trimer (influenza A virus A/Wisconsin/67/2005 (H3N2)); experiment: FACS
[2] = biological target: recombinant hemagglutinin (HA) trimer of H3N2 A/Wisconsin/67/2005, ectodomain (influenza A virus A/Wisconsin/67/2005 (H3N2)); experiment: ELISA
[3] = biological target: recombinant hemagglutinin (HA) trimer of H5N1 A/Vietnam/1203/2004, ectodomain (influenza A virus A/Vietnam/1203/2004 (H5N1)) (UniProt Q6DQ33); experiment: ELISA
[4] = biological target: recombinant hemagglutinin (HA) trimer of H1N1 A/California/07/2009, ectodomain (influenza A virus A/California/07/2009 (H1N1)) (UniProt C3W5X2); experiment: ELISA
[5] = biological target: recombinant hemagglutinin (HA) trimer of H7N9 A/Anhui/1-BALF_RG17/2013, ectodomain (influenza A virus A/Anhui/1-BALF_RG17/2013 (H7N9)); experiment: ELISA

C05
EC50 [1]: 0.13 µg/mL | EC50 [2]: 0.00844 µg/mL

F10
EC50 [3]: 0.021 µg/mL | EC50 [4]: 0.0122 µg/mL

FI6V3
EC50 [1]: 0.065 µg/mL | EC50 [3]: 0.00648 µg/mL | EC50 [5]: 0.314 µg/mL | EC50 [2]: 0.0789 µg/mL | EC50 [4]: 0.0107 µg/mL

CR8020
EC50 [1]: 0.569 µg/mL | EC50 [2]: 0.0194 µg/mL
